Measured values reported in patent publication US20060172374A1 (Novartis, published 2006).

Legend:
[1] = target: T1, HA-NDR N-terminal point mutant, arginine 41 to alanine (human, UniProt Q15208 1-465); assay: co-immunoprecipitation of myc-hMOB1 with HA-NDR point mutants, OA-treated COS1 cells
T1 construct: also called arginine 41 mutant

[2] = target: T2, HA-NDR N-terminal point mutant, arginine 78 to alanine (human, UniProt Q15208 1-465); assay: as above
T2 construct: also called arginine 78 mutant
T2 sequence (Q15208 other isoform, or with tags, fused parts or gaps mutant limits assumed): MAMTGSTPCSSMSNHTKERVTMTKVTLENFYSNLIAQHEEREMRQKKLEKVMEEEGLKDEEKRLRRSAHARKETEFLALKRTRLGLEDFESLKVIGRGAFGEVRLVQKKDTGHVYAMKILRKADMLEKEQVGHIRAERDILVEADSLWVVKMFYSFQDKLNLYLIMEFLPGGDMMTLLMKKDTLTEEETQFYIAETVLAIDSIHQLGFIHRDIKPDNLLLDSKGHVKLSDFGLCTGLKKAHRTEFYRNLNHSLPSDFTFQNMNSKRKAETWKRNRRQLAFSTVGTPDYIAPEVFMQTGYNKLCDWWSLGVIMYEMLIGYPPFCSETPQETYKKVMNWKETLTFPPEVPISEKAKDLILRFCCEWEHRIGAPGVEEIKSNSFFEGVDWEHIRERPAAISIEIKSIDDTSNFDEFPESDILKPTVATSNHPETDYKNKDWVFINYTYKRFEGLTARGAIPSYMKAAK

[3] = target: T3, HA-NDR N-terminal point mutant, tyrosine 31 to alanine (human, UniProt Q15208 1-465); assay: as above
T3 construct: also called tyrosine 31 mutant
T3 sequence (Q15208 other isoform, or with tags, fused parts or gaps mutant limits assumed): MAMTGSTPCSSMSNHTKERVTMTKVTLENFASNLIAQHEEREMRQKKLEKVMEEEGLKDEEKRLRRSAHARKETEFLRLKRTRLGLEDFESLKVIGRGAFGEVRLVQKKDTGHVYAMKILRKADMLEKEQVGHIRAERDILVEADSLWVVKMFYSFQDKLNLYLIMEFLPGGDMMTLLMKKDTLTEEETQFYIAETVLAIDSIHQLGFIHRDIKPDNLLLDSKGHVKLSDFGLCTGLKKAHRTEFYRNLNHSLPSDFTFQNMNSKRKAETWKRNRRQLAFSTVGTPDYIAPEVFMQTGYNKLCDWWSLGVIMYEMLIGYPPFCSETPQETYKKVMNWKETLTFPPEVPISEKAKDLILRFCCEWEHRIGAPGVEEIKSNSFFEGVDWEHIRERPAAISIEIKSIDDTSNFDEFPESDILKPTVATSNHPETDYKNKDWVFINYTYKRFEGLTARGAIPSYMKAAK

[4] = target: T4, HA-tagged NDR1 wild type (human, UniProt Q15208 1-465); assay: co-immunoprecipitation, summary of Example 8
T4 construct: also called HA-NDR1; HA-NDR
T4 sequence (Q15208 whole entry): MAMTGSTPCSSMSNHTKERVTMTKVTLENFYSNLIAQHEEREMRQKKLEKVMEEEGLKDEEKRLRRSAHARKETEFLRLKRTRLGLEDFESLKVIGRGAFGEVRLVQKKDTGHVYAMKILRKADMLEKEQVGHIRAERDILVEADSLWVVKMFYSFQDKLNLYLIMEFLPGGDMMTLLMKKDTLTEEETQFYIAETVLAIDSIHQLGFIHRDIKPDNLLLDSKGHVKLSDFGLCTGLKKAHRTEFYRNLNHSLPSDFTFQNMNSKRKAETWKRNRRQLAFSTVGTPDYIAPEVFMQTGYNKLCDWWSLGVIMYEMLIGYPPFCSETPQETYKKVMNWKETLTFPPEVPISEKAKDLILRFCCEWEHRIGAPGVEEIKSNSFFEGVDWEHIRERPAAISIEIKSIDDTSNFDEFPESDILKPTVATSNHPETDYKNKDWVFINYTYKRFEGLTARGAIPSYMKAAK

[5] = target: T5, HA-NDR1 T74A (human, UniProt Q15208 1-465); assay: co-immunoprecipitation of myc-hMOB1 with HA-NDR, OA-treated COS-1 cells
T5 construct: pCMV5_HA-NDR1 mutant expressed in COS-1 cells; also called T74A mutant
T5 sequence (Q15208 whole entry T74A): as the sequence (Q15208 whole entry) above, with T74A counted along it

T1 sequence (Q15208 other isoform, or with tags, fused parts or gaps mutant limits assumed): as the sequence (Q15208 whole entry) above, with R41A counted along it

- binding result [1]: no binding
- binding result [2]: no binding
- binding result [3]: no binding
- binding result [4]: binds
- binding result [5]: no binding
B1: myc-tagged hMOB1 (other, not shown: small tags and cut ends)
chain: MSFLFSSRSSKTFKPKKNIPEGSHQYELLKHAEATLGSGNLRQAVMLPEGEDLNEWIAVNTVDFFNQINMLYGTITEFCTEASCPVMSAGPRYEYHWADGTNIKKPIKCSAPKYIDYLMTWVQDQLDDETLFPSKIGVPFPKNFMSVAKTILKRLFRVYAHIYHQHFDSVMQLQEEAHLNTSFKHFIFFVQEFNLIDRRELAPLQELIEKLGSKDR
modifications: okadaic acid induced modification of MOB1 (not identified) in cells treated with okadaic acid
notes: also called myc-hMOB1; myc-mob1
